Source: FireProtDB (doi:10.1021/bi980431i)
“And” between values parts separate entries of the source, which are not always exact repeats. Equal values may be shown once.

B1: Lysozyme C, P61626 (parent)
chain: MKALIVLGLVLLSVTVQGKVFERCELARTLKRLGMDGYRGISLANWMCLAKWESGYNTRATNYNAGDRSTDYGIFQINSRYWCNDGKTPGAVNACHLSCSALLQDNIADAVACAKRVVRDPQGIRAWVAWRNRCQNRDVRQYVQGCGV

Variants of: B1
Conditions: Homo sapiens; pH 2.53; Thermal; DSC; glycine 0.05 M; reversible: yes; structure 1LZ1; whole UniProt chain shown

| Variant | Tm [°C] | heat capacity change of unfolding [kcal/mol/K] | unfolding enthalpy (calorimetric) [kcal/mol] | unfolding enthalpy (van 't Hoff) [kcal/mol] |
| --- | --- | --- | --- | --- |
| Y142F | 60.8 | 1.48 | 108 | 112 |

Same assay, conditions: Homo sapiens; pH 2.68; Thermal; DSC; glycine 0.05 M; reversible: yes; structure 1LZ1; whole UniProt chain shown

| Variant | Tm [°C] | heat capacity change of unfolding [kcal/mol/K] | unfolding enthalpy (calorimetric) [kcal/mol] | unfolding enthalpy (van 't Hoff) [kcal/mol] |
| --- | --- | --- | --- | --- |
| Y142F | 63.4 | 1.08 | 112 | 116 |

Same assay, conditions: Homo sapiens; pH 2.7; 64.9 °C; Thermal; DSC; glycine 0.05 M; reversible: yes; structure 1LZ1; whole UniProt chain shown

| Variant | ddG of mutation (higher = less stable) [kcal/mol] | heat capacity change of unfolding [kcal/mol/K] |
| --- | --- | --- |
| Y142F | 0.36 | 1.46 |
| Y56F | 0.19 | 1.29 |
| Y38F | 0.5 | 1.35 |
| Y63F | -0.07 | 1.1 |
| Y81F | 0.24 | 1.53 |
| Y72F | 0.96 | 1.67 |

Same assay, conditions: Homo sapiens; pH 2.7; Thermal; DSC; glycine 0.05 M; reversible: yes; structure 1LZ1; whole UniProt chain shown

| Variant | Tm | change of melting temperature, mutant - wild type (higher = more stable) [°C] | heat capacity change of unfolding | unfolding enthalpy (calorimetric) | unfolding enthalpy (van 't Hoff) |
| --- | --- | --- | --- | --- | --- |
| Y142F | 63.8 °C and 64 °C | -1.1 | 1.46 kcal/mol/K and 1.53 kcal/mol/K | 114 kcal/mol and 113 kcal/mol | 119 kcal/mol and 118 kcal/mol |
| Y56F | 64.3 °C | -0.6 | 1.29 kcal/mol/K | 114 kcal/mol | 117 kcal/mol |
| Y38F | 63.4 °C | -1.5 | 1.35 kcal/mol/K | 112 kcal/mol | 120 kcal/mol |
| Y63F | 65.1 °C | 0.2 | 1.1 kcal/mol/K | 112 kcal/mol | 118 kcal/mol |
| Y81F | 64.2 °C | -0.7 | 1.53 kcal/mol/K | 111 kcal/mol | 117 kcal/mol |
| Y72F | 61.9 °C | -3 | 1.67 kcal/mol/K | 110 kcal/mol | 117 kcal/mol |

Same assay, conditions: Homo sapiens; pH 3.06; Thermal; DSC; glycine 0.05 M; reversible: yes; structure 1LZ1; whole UniProt chain shown

| Variant | Tm [°C] | heat capacity change of unfolding [kcal/mol/K] | unfolding enthalpy (calorimetric) [kcal/mol] | unfolding enthalpy (van 't Hoff) [kcal/mol] |
| --- | --- | --- | --- | --- |
| Y142F | 69.7 | 1.82 | 121 | 125 |

Same assay, conditions: Homo sapiens; pH 2.71; Thermal; DSC; glycine 0.05 M; reversible: yes; structure 1LZ1; whole UniProt chain shown

| Variant | Tm [°C] | heat capacity change of unfolding [kcal/mol/K] | unfolding enthalpy (calorimetric) [kcal/mol] | unfolding enthalpy (van 't Hoff) [kcal/mol] |
| --- | --- | --- | --- | --- |
| Y56F | 64.6 | 1.03 | 113 | 117 |
| Y63F | 64.9 | 1.15 | 111 | 117 |

Same assay, conditions: Homo sapiens; pH 2.92; Thermal; DSC; glycine 0.05 M; reversible: yes; structure 1LZ1; whole UniProt chain shown

| Variant | Tm [°C] | heat capacity change of unfolding [kcal/mol/K] | unfolding enthalpy (calorimetric) [kcal/mol] | unfolding enthalpy (van 't Hoff) [kcal/mol] |
| --- | --- | --- | --- | --- |
| Y56F | 67.2 | 1.46 | 117 | 121 |

Same assay, conditions: Homo sapiens; pH 3.1; Thermal; DSC; glycine 0.05 M; reversible: yes; structure 1LZ1; whole UniProt chain shown

| Variant | Tm [°C] | heat capacity change of unfolding [kcal/mol/K] | unfolding enthalpy (calorimetric) [kcal/mol] | unfolding enthalpy (van 't Hoff) [kcal/mol] |
| --- | --- | --- | --- | --- |
| Y56F | 70.3 | 0.96 | 121 | 124 |

Same assay, conditions: Homo sapiens; pH 3.25; Thermal; DSC; glycine 0.05 M; reversible: Yes; structure 1LZ1; whole UniProt chain shown

| Variant | Tm [°C] | heat capacity change of unfolding [kcal/mol/K] | unfolding enthalpy (calorimetric) [kcal/mol] | unfolding enthalpy (van 't Hoff) [kcal/mol] |
| --- | --- | --- | --- | --- |
| Y56F | 72.4 | 1.12 | 123 | 126 |

Same assay, conditions: Homo sapiens; pH 2.58; Thermal; DSC; glycine 0.05 M; reversible: yes; structure 1LZ1; whole UniProt chain shown

| Variant | Tm [°C] | heat capacity change of unfolding [kcal/mol/K] | unfolding enthalpy (calorimetric) [kcal/mol] | unfolding enthalpy (van 't Hoff) [kcal/mol] |
| --- | --- | --- | --- | --- |
| Y38F | 61.1 | 1.67 | 106 | 114 |
| Y81F | 61.9 | 1.53 | 106 | 112 |

Same assay, conditions: Homo sapiens; pH 2.89; Thermal; DSC; glycine 0.05 M; reversible: yes; structure 1LZ1; whole UniProt chain shown

| Variant | Tm [°C] | heat capacity change of unfolding [kcal/mol/K] | unfolding enthalpy (calorimetric) [kcal/mol] | unfolding enthalpy (van 't Hoff) [kcal/mol] |
| --- | --- | --- | --- | --- |
| Y38F | 66.8 | 1.7 | 115 | 123 |
| Y63F | 68.7 | 0.65 | 116 | 122 |

Same assay, conditions: Homo sapiens; pH 3.18; Thermal; DSC; glycine 0.05 M; reversible: yes; structure 1LZ1; whole UniProt chain shown

| Variant | Tm [°C] | heat capacity change of unfolding [kcal/mol/K] | unfolding enthalpy (calorimetric) [kcal/mol] | unfolding enthalpy (van 't Hoff) [kcal/mol] |
| --- | --- | --- | --- | --- |
| Y38F | 72 | 0.6 | 122 | 129 |

Same assay, conditions: Homo sapiens; pH 2.48; Thermal; DSC; glycine 0.05 M; reversible: yes; structure 1LZ1; whole UniProt chain shown

| Variant | Tm [°C] | heat capacity change of unfolding [kcal/mol/K] | unfolding enthalpy (calorimetric) [kcal/mol] | unfolding enthalpy (van 't Hoff) [kcal/mol] |
| --- | --- | --- | --- | --- |
| Y63F | 61.4 | 0.89 | 109 | 115 |

Same assay, conditions: Homo sapiens; pH 2.67; Thermal; DSC; glycine 0.05 M; reversible: yes; structure 1LZ1; whole UniProt chain shown

| Variant | Tm [°C] | heat capacity change of unfolding [kcal/mol/K] | unfolding enthalpy (calorimetric) [kcal/mol] | unfolding enthalpy (van 't Hoff) [kcal/mol] |
| --- | --- | --- | --- | --- |
| Y63F | 64.6 | 1.34 | 112 | 117 |

Same assay, conditions: Homo sapiens; pH 3.13; Thermal; DSC; glycine 0.05 M; reversible: yes; structure 1LZ1; whole UniProt chain shown

| Variant | Tm [°C] | heat capacity change of unfolding [kcal/mol/K] | unfolding enthalpy (calorimetric) [kcal/mol] | unfolding enthalpy (van 't Hoff) [kcal/mol] |
| --- | --- | --- | --- | --- |
| Y63F | 72.5 | 1.63 | 121 | 127 |
| Y72F | 69.1 | 1.12 | 117 | 124 |

Same assay, conditions: Homo sapiens; pH 3; Thermal; DSC; glycine 0.05 M; reversible: yes; structure 1LZ1; whole UniProt chain shown

| Variant | Tm [°C] | heat capacity change of unfolding [kcal/mol/K] | unfolding enthalpy (calorimetric) [kcal/mol] | unfolding enthalpy (van 't Hoff) [kcal/mol] |
| --- | --- | --- | --- | --- |
| Y81F | 69.5 | 0.6 | 117 | 122 |

Same assay, conditions: Homo sapiens; pH 3.17; Thermal; DSC; glycine 0.05 M; reversible: yes; structure 1LZ1; whole UniProt chain shown

| Variant | Tm [°C] | heat capacity change of unfolding [kcal/mol/K] | unfolding enthalpy (calorimetric) [kcal/mol] | unfolding enthalpy (van 't Hoff) [kcal/mol] |
| --- | --- | --- | --- | --- |
| Y81F | 72.7 | 0.67 | 123 | 129 |

Same assay, conditions: Homo sapiens; pH 2.69; Thermal; DSC; glycine 0.05 M; reversible: yes; structure 1LZ1; whole UniProt chain shown

| Variant | Tm [°C] | heat capacity change of unfolding [kcal/mol/K] | unfolding enthalpy (calorimetric) [kcal/mol] | unfolding enthalpy (van 't Hoff) [kcal/mol] |
| --- | --- | --- | --- | --- |
| Y72F | 61.7 | 0.89 | 105 | 112 |

Same assay, conditions: Homo sapiens; pH 2.82; Thermal; DSC; glycine 0.05 M; reversible: yes; structure 1LZ1; whole UniProt chain shown

| Variant | Tm [°C] | heat capacity change of unfolding [kcal/mol/K] | unfolding enthalpy (calorimetric) [kcal/mol] | unfolding enthalpy (van 't Hoff) [kcal/mol] |
| --- | --- | --- | --- | --- |
| Y72F | 64 | 1.91 | 108 | 114 |

Same assay, conditions: Homo sapiens; pH 2.99; Thermal; DSC; glycine 0.05 M; reversible: yes; structure 1LZ1; whole UniProt chain shown

| Variant | Tm [°C] | heat capacity change of unfolding [kcal/mol/K] | unfolding enthalpy (calorimetric) [kcal/mol] | unfolding enthalpy (van 't Hoff) [kcal/mol] |
| --- | --- | --- | --- | --- |
| Y72F | 67 | 1.34 | 114 | 120 |
